Measurements from the supplement of paper PMC12636428.

Tested on: Saccharomyces cerevisiae
Assay: transcriptional activation domain activity (GFP:mCherry ratio, weighted mean of sorted bins, harmonized to initial dataset scale) (arbitrary fluorescence ratio units); higher = stronger transcriptional activation
Conditions: beta-estradiol 1 µM; induction time 4 h
Summary of the method: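 Barcoded protein tiles fused to an estradiol-inducible synthetic transcription factor were integrated at the yeast URA3 locus, in diploids carrying a GFP reporter. Cultures were diluted 1:5 into SC with 1 uM beta-estradiol, held 4 hours at 30 °C, sorted into 8 bins by GFP:mCherry ratio, and barcodes sequenced. Tiles under 50 reads were discarded. Activation activity is the read-weighted mean of bin median fluorescence, averaged across barcodes, then linearly mapped onto the initial dataset scale.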

| Sequence | transcriptional activation domain activity |
| --- | --- |
| PAAATPAVSIGLIYLIIMAFFSFSFFLPIHMKYIQPQGHPPLHFWQLIIWRWL | 52700 |
| FFSSFLFFSFLFFSVVLSFLLFFSLLFSSPLFFPFLPFPSLSFPSLPSSPLLF | 35200 |
| FFGSLMGGALARPQDHWPELFAHPFWTTHPYFLPSASSDCVLLLIIFISLFFL | 77800 |
| MQTSLLPLFSFLSFLFLLVFLLLLSLYLAFSHVAFSFLSLFFCYISFFLFYSF | 26200 |
| MGASLRVQIWVCIRLELCCSWIWFLASFGILFFFFCFCPLRTSLHSFPLPLYI | 47800 |
| GVEGQGKRTRAGKKRRIVLRERQRKRVKEEEERKKKGEEKEGREREKRVRRNR | 46700 |
| MIFSLFLSYNPLFYFIYYYLFYFSCFLLLILIAIITIIAILLCILEFHVPKSL | 51600 |
| GGVAAREAKRKGRGRGEEEGRGAVCGGRGARGGARGRGGGGGRTGRAGGARAL | 23500 |
| VQFVLDLIVMVGVAGYNTVAQLYFPQLPHHKCSNSAATGSFGLFLICCYLVLF | 53700 |
| VVVYCKSIDLLFRVALYLWRSPAVIAWISFAARQARVIVATVVFGLGINRADI | 69400 |
| LSSLPPSAPPFPPPSPLPPPLCFPLPPLFPPFLPSLSFPLSPPPSHFPFPLIP | 27100 |
| EHHLLKALVDVIKRAMLISAQGASGRFEAKDLHLEHMIYWLKYFLNRAVCIAL | 62700 |
| RCSIIYAGCHCPMWMVLFVPGCLFGLSVALGTLWLVQASDMLFPHTNYILIYI | 46700 |
| ATCPSFFRSICSTYYDNFVFVWDAVAAFLVPYQRYTYYPIMGIARFNLYLLSW | 52400 |
| NASVTREVPQFDTSANQMLSDIWSWIYYSEEFLAIPPSMVEGYDFSWQGLLGI | 120000 |
| MVLLLLLDYNVFCHFNFAVHLYLLPFINKFKRIVLGHLIFLWNYLVQVVVVSP | 67600 |
| GKFLTVLLALSVMGSVAATSVAIFSFNNIRSNVYSFYSISLNMQILMPVLVYV | 41200 |
| PGYVVQYKNSLIGKHFKMLQQLGVFYLHDLCAPLILDLWKATGELGAYLWFPE | 40900 |
| SKKRKIKGGKSRSSSSKSDSSSSSSSSEDGEEKDLSKGVGKRGAKRAKSDDSS | 19000 |
| FVGIRDRTTFLLFTSAWTVVFSLLFVLLFMHSASTGSPLTSVASHFVVFLLTW | 56900 |
| RGKVVSRLRKVLQKTSFKPTRSLTDHWTWNEIAILIRFVLMLSFNNRGPVKSY | 43200 |
| RYLRHIKNIVFVLVLLNYWSKLYNTVLIGGPVRAVHDFKTYLIRIVFRQLRRL | 47300 |
| YTIGFVGFVMSLQKGYLKQQFGLFCWVHMSLLIIVLSSHFVINNILEGLIWFW | 54600 |
| NGFCYSAITGGSIVLLLPGWYVFFYSLELQSRSMLCGSIRLGWAIIYAFFLGF | 58900 |
| VNGDLFEADGCTIQWLLDNSHGLIFAVAYPRILTLTYVPALLQTIKTLFLSLF | 44000 |

| Sequence | transcriptional activation domain activity |
| --- | --- |
| MSSPEVNSSQPASSPRKARRYGFACASCKARKVKCSGDQPVCRACRRANESCV | 24300 |
| LATTDLTHRQNGEEPIQNEIAKLFHSGGDSVVDILFSQTSATEFVTVGGTGNV | 64400 |
| SRGICVYPFLPFAFFLGVFFSLMEFVLLGMMMVLYLYMRTVTCMFDISICLLL | 48500 |
| EEKAAGRSAASGGAEGEGKKRKAEGGEGAAGEEKKEKKKGRTYRQREPLAAGG | 54900 |
| GSSGSGAGSKGGPAPRGSSAKRSSGSGSGGGGRKGGGSAGKGSGGGGGRGRSG | 28600 |
| FLHLATLKEKMGNRFRAKQSDISPEINLVLLGVLTLTVRFNPTLVSYVTTLRT | 50600 |
| AINVSFLHWIYIFHATGKHKYASQLARYLKNLHEVHPPELSQWLIEVFRKCHI | 61400 |
| LLECREDYINNNIRYCDDNKILLKSMIQMFVDLIPFSDKFLGLIFHIVPSFMH | 44700 |
| EAVPHQDNDSFRSEKKEGEAEVQIVEDVGSSIYGCDRTQRTLKNRHIQLIGVG | 50200 |
| MFYFLLLYQSIVFLPYIFFSQFLIWVWCGLGREPGWHLEHGVYRYRWVRILSI | 39300 |
| LQVVIEECDLMPTVAVLLRDAKKVFPERDGFFLYRQMAISVVCVYILCSLFAL | 67900 |
| SSSAESSKASSSKKVASTKPKSKSAGTKAKPAAKKPAKKAAPKKKKPAKRAAK | 34500 |
| YVVVVLTAMQVGLATETLAHNKAFVTISYGFSIFSIFIPIVFTLLLLLVFFFV | 19400 |
| RRRFHRRVTGCNCGVKTYKLGESYNDEFESTYLSYYACRICLLVTSLYIARFW | 44500 |
| LKSKSVVSSRTAEEKKEISGALGEGMLQQLVVLLGQVPRIILLILKTNDLTRS | 52200 |
| MAGDDEEGRDADGEPDNAATPAKRQRVSRACDQCRAARERCDGKPQCHPCVSQ | 34100 |
| ILMLFLGCLVICDLAFNIIVTILAFTTGFTHLLLSLVPTIPPPNCFLVHWQNH | 54600 |
| LEEAEDGGGALADGEIEVRVAATGVTVDDARAAAGLRAGYTVGTECSGTVARV | 11500 |
| MFCLRSWLPLLFIPTNASPAFILLFFIGTYFLNRPCVYCSLLLLILFCTSCVW | 40200 |
| KAGKKKYVESVNGRRREVLVIVGKDGKTKRKTRWLDPESAATETGVPWGLEVP | 28800 |
| MLSSKLNGRSQFICHLCHTGSLLTSVTLIFPFHHTYLHFLGWNLTLLTTVWFF | 60600 |
| FCRALIHSQGEGPKSIYESSVISLTEAARAIINISRRSFTLHQTLTCRMWYFL | 49900 |
| MFFLSSIFLTLSMTLSPLFLYFNWLVVYGFSSLFFIFSTPTFLPPLCFFQWYC | 45200 |
| MFVFHMFVFYFVCLFFICLSFILYALFFMSYFYFLLVYFDICFLFLYLFLIFI | 15300 |
| DIIPDHYKHKPISLYDPRKAPLLNQYRLIVPRSRNIIEVCQFIILLLLYCLSM | 78100 |

| Sequence | transcriptional activation domain activity |
| --- | --- |
| MEGRVGGDQKGGGFIFVYGSGVLDWGVFFRFIYISLSFFVWGLFLCVSFAFVL | 41200 |
| MKIHECTGVVYIGNVLCHKQPQVLLGLMFFMDLTLFFLDSYLWYIICNTIFSV | 68700 |
| MIGHWFVLLNLISNWIVLSSFSILFYIYIYMPLYCHYAPFIFMLFLLYIPLLI | 48800 |
| RELKRMVQEAIRDIREKKSTLTVQHLKRLLFRVAALIICTPKCDHDLLHYLVI | 61800 |
| GGEDIAAAENTGGSPAAGSGRGRGRSSRGGRGRGSGRGRGRGGSNAAGGSAAG | 16500 |
| PIMVVTLPLPAQITQYYPITLVSVLQWFAFWSFSALLTIPWLLCVYQLVTHSL | 54400 |
| PSEEAAAAAVEEEEDVTQPEKPKDPEPTPVQPKATPAPAPTPAKPAVPKSWAS | 37300 |
| IILDLLLRFSKVENVISQAVDSPPMGRLGCCAIVTGSAVAWALCTATRFRLVL | 52600 |
| VQRLHALEKHEYDVCTNLEACLRFGLWAQRGVLSLWHLDLLNGTWMTCLSGVK | 39600 |
| KGEERGMEKDKEKDKDRDREVKKEKAREARADKEGARPKAAIRQVKVKSAVKQ | 56500 |
| QFALLLGSFLCVAISCFGHLALLFLWLIAPFYFLVFLFWQSFNLFLFVSVCCG | 44700 |
| AGEKADAPNGEGAGEGNRRRPSGRGRGRGRGGRGARNGRDGAQEEGAEAAAAP | 14300 |
| APRARPAPAQRVGPRARAAEQLHRADGQHRERARRQHGRRHPPAAGAAPAVRL | 52800 |
| YIKVLVAVLFVLDTLHVYYLSATFWVVCIRGRLDISGLTVLPWQTPASILMTV | 42300 |
| RFNLPICGEIKMYRGWTVIDLVHMVCINTACKISNLKHALRKLSISFTNLVKP | 54700 |
| MRLFYSSFLLFSFLPFLPLLWFFNYLIAIVFPFFFFFFLSFVMGLISFRFLLF | 40200 |
| LVEFLFAVNDEVANVLLVFFCVFVAGYFILTSLPLLFQQCPFQTPLTSFFWYA | 38600 |
| TGRLQFKWAFVPYILARFVLLGQLLALTLVLRNLQTLIHCGKVLRWLTIVSNV | 60000 |
| MWHWLFYLFFSFFLQFLLFLFSFSSSFNFFYFCFPFLLFSVSFFCFCFWFLFF | 50000 |
| LLSEESLRTMGLRTVKDILLRCASERAILTLVDFPLRVLVMVAQIRTGLWVRN | 36800 |
| SSEEEDEEDEEEEEEEEEEEAPPKKRAKTKGTVLYCYIFSPFFVPATVNPAID | 56700 |
| RVVLRCLFLAYECIEEADVKSTLSYTIEVAFNLITSTCDYIGPVAMSHALRAG | 53900 |
| CPSFPSSFFVWVFEPRVAVPNLLGIIYLFCLVSHLPSSLFILSGTLLPLIVCL | 61300 |
| TLWLLLLCLRCSTSVLALLTLLSCSSFPPFLGFHLSRALWPVLRCPLPSMLCS | 59400 |
